Where no end group is shown, it is not given here. The star is where a group is joined. Biotin = O=C1N[C@H]2[C@H](CS[C@H]2CCCCC(=O)*)N1
T1: Coating peptide PIQWNAPQPS-K-Biotin (human)
T1 construct: also called biotin-labelled peptide
T1 peptide: PIQWNAPQPSK(Biotin)

T2: Truncated peptide IQWNAPQPS
T2 construct: also called deselection peptide
T2 peptide: IQWNAPQPS

T3: Elongated peptide HPIQWNAPQPS
T3 construct: also called deselection peptide
T3 peptide: HPIQWNAPQPS

T4: Nonsense peptide LHDSNPYPRR
T4 construct: also called nonsense selection peptide; deselection peptide
T4 peptide: LHDSNPYPRR

T5: Nonsense coating peptide LHDSNPYPRR-K-Biotin
T5 peptide: LHDSNPYPRRK(Biotin)

B1: Selection peptide PIQWNAPQPS (peptide)
peptide: PIQWNAPQPS
notes: Synthetic peptide from Genscript
B2: FN-ANA monoclonal antibody (mAb raised against the FN-ANA neoepitope sequence …) (antibody, mouse IgG1, kappa, V domains shown)
VH: QVQLQQSGAELVRPGASVKLSCKALGYTLTDYEMHWVKQTPVHGLEWIGAIHPGRGAAAYNQKFKDKATLTADKSSSTAYMELSSLTSEDSAVYYCTRSEEYGNYEDAMDYWGQGTSVTVSS
VL: DVVMTQTPLSLPVSLGDQASISCRSSQSLVHSNGNTYLHWFLQKPGQSPKLLIYKVSNRFSGVPDRFSGSGSGTDFTLKISRVEAEDLGVYFCSQSTHVPYTFGGGTKLEIKR
modifications: antibody labeled with HRP (site not stated)
notes: Mouse IgG1/kappa from a hybridoma, purified and HRP-labelled for the assay; also called FN-ANA mAb; FN-ANA antibody

What was measured:
[1] = target: B2; test: competitive chemiluminescent ELISA, ten independent runs: selection peptide competes with plate-bound coating peptide …-K-biotin for HRP-labelled mAb; 20 h at 4 C
Protocol: The final FN-ANA assay parameters were determined empirically by several optimizing experiments where various reagents, concentrations, incubation time and temperature were investigated in addition to testing reactivity to selection and deselection peptides (Table 1) and human sera. The final FN-ANA competitive ELISA procedure was conducted with chemiluminescence detection and determined as follows: 100 μL of 3 ng/ml coating peptide ([…]-K-biotin (SEQ ID NO: 5)) in coating buffer (50 mM tris-buffered saline (TBS) with 1% (w/v) bovine serum albumin, 0.1% (w/v) Tween-20, and 0.36% (v/v) Bronidox (BTB), 4 g/L NaCl, 0.20 g/L KCl, pH 8.0) was added to each well in a 96-well streptavidin-coated microtiter white plate (cat. No. 655995, Greiner Bio-one, Taufkirchen, Germany), whereafter it was incubated for 30 minutes at 20° C. with 300 RPM orbital shaking. After incubation, the plate was emptied and washed 5 times in washing buffer (consisting of 25 mM Tris, 3.0 g/L NaCl, 0.1% (w/v) Tween-20, pH 7.2). […] Following a washing step, 100 µL/well of chemiluminescence substrate was added, and the plate was incubated for a total of 3 minutes in darkness with 1 minute of 300 RPM orbital shaking before detection with luminescence on a SpectraMax i3x microplate reader (Molecular Devices, Sunnyvale CA, USA) at 1 second integration time at all wavelengths as microplate reader settings. […]

[2] = target: B1; test: competitive ELISA, colorimetric detection
[3] = target: T1, Coating peptide PIQWNAPQPS-K-Biotin; test: competitive ELISA, colorimetric detection
[4] = target: T2, Truncated peptide IQWNAPQPS; test: competitive ELISA, colorimetric detection (OD 450 nm), two-fold diluted peptides
Protocol: (§1) No. 655995, Greiner Bio-one, Taufkirchen, Germany), whereafter it was incubated for 30 minutes at 20° C. with 300 RPM orbital shaking. After incubation, the plate was emptied and washed 5 times in washing buffer (consisting of 25 mM Tris, 3.0 g/L NaCl, 0.1% (w/v) Tween-20, pH 7.2). A 10-point calibration curve with 2-fold dilution was prepared from a start concentration of 200 ng/ml selection peptide ([…] (SEQ ID NO: 1)) in incubation buffer (50 mM TBS-BTB, 4.0 g/L NaCl, 0.20 g/L KCl, 5% Liquid II (cat. No. 11941836001, Roche), pH 8.0). 20 μL/well of standards, assay controls, and serum samples were added to appropriate wells in double determinations followed by the addition of 100 μL/well of 6 ng/ml of HRP-labelled mAb in incubation buffer, whereafter plates were incubated at 4° C. for 20 hours with 300 RPM orbital shaking. The following day, chemiluminescence substrate (cat. No. 11582950001, Roche Diagnostics) was prepared according to manufacturer's instructions and mixed by rotation in the dark for 20 minutes at room temperature prior to plate analysis. Following a washing step, 100 µL/well of chemiluminescence substrate was added, and the plate was incubated for a total of 3 minutes in darkness with 1 minute of 300 RPM orbital shaking before detection with luminescence on a SpectraMax i3x microplate reader (Molecular Devices, Sunnyvale CA, USA) at 1 second integration time at all wavelengths as microplate reader settings. […]
(§2) Antibody specificity was evaluated using the synthetic peptides and determined as a percentage of signal inhibition of two-fold diluted selection and deselection peptides (elongated, truncated, and nonsense) in addition to a non-sense coating (peptide details are listed in Table 1) using a colorimetric detection method with 96-well streptavidin-coated microtiter plate (cat. No. 11940279, Roche Diagnostics, Hvidovre, Denmark) and using the above procedure with the following exceptions: Instead of adding chemiluminescent substrate, the colorimetric substrate 3,3′,5,5′-tetramethylbenzidine One (cat. […]

[5] = target: T3, Elongated peptide HPIQWNAPQPS; test: as above
Protocol: as §1, §2

[6] = target: T4, Nonsense peptide LHDSNPYPRR; test: as above
Protocol: as §1, §2

[7] = target: T5, Nonsense coating peptide …; test: ELISA with the nonsense coating peptide on a streptavidin plate, colorimetric detection (OD 450 nm)

Binder	IC50 [1] [ng/mL]	binding result [2]	binding result [3]	binding result [4]	binding result [5]	binding result [6]	binding result [7]
B1	8.86						
B2		binds	binds	no binding	no binding	no binding	no binding

Source: patent US20250076314A1 (NORDIC BIOSCIENCE A S, published 2025)
